Source: article PMC2940250

Key:
Assay in all cases: other fluorescence titration
[1] = target: 14-C40-1 chimeric virus (HRV14:HIV-1 gp41 ALDKWAS chimera from a previous library) (human rhinovirus 14 | HIV-1 HxB2)
[2] = target: B1 chimeric virus (HRV14:HIV-1 gp41 ELDKWAS chimera) (human rhinovirus 14 | HIV-1 HxB2)
[3] = target: C1 chimeric virus (HRV14:HIV-1 gp41 ELDKWAS chimera) (human rhinovirus 14 | HIV-1 HxB2)

Substance “broadly neutralizing human mAb 2F5 (antibody)” has a Kd [1] of 769 nM, a Kd [2] of 2 nM and a Kd [3] of 23.8 nM.
